In article PMC2577335:

What was measured:
Assay in all cases: equilibrium binding isotherms of eEF2 on ribosomes
[1] = target: wild-type yeast ribosomes (salt-washed), with wild-type ribosomal protein L3 (S. cerevisiae) (UniProt P14126)
[2] = target: yeast ribosomes (salt-washed) with ribosomal protein L3 mutant S2A (S. cerevisiae) (UniProt P14126)
[3] = target: yeast ribosomes (salt-washed) with ribosomal protein L3 mutant S2T (S. cerevisiae) (UniProt P14126)
[4] = target: yeast ribosomes (salt-washed) with ribosomal protein L3 mutant S2K (S. cerevisiae) (UniProt P14126)

Kd [1]: 18.7 nM | Kd [2]: 19.9 nM | Kd [3]: 20.7 nM | Kd [4]: 20.4 nM
Substance: 6 × His-tagged eEF2 (elongation factor 2) (from UniProt P32324 1-842) (natural protein)
